{
  "source": "paper PMC9435597",
  "about": "“Medical contrast agents as promising tools for biomacromolecular SAXS experiments” (Acta Crystallographica. Section D, Structural Biology, 2022)",
  "proteins": {"B1": {"name": "protease 1 from Pyrococcus horikoshii (enzyme)", "chain": "MKVLFLTANEFEDVELIYPYHRLKEEGHEVYIASFERGTITGKHGYSVKVDLTFDKVNPEEFDALVLPGGRAPERVRLNEKAVSIARKMFSEGKPVASICHGPQILISAGVLRGRKGTSYPGIKDDMINAGVEWVDAEVVVDGNWVSSRVPADLYAWMREFVKLLK", "notes": "protease 1 (P1) from Pyrococcus horikoshii; Hexamer; also called P1; source: purified following existing protocols (Engilberge et al., 2017)"}},
  "biological_target": "the molecule itself",
  "experiment": "SAXS; P1 in solution, 20 mM Tris pH 7.5, 150 mM NaCl, 15°C, flow mode, SWING beamline; contrast series with Gd-HPDO3A (up to 1341 mM) or iohexol (up to 618 mM); CRYSOL fits with a hexameric atomic model, linearity of I(0)^1/2, Rg",
  "data": [
    {"protein": "B1", "values": [
      {"measurement": "stoichiometry N", "value": 6}
    ]}
  ]
}
